Experimental data: publication PMC2583301 (The Journal of Biological Chemistry, 2008)
Numbering of substitutions follows the chain as printed. Numbers in names are those of the source. Where two headings read alike, the source gives them in different places. Values belong to the binder of their own block, whether it stands above or below them.

Assays:
[1] = target: T1, H2A/H2B dimer (major type, wild type) (Xenopus laevis, UniProt P06897;P02281); experiment: other fluorescence titration
[2] = target: T1, H2A/H2B dimer (major type, wild type); experiment: other fluorescence titration; remark: listed apart in the source
[3] = target: H2A refolded in the absence of H2B (Xenopus laevis, UniProt P06897 1-130); experiment: other fluorescence titration
H3 alone = H3 alone (Xenopus laevis, UniProt P84233 1-136); experiment: other fluorescence titration
H2A.Z/H2B dimer = H2A.Z/H2B dimer ( | Xenopus laevis, UniProt P0C0S5;P02281); experiment: other fluorescence titration
[4] = target: T1, H2A/H2B dimer (major type, wild type); experiment: other fluorescence titration; remark: listed apart in the source
[5] = target: T1, H2A/H2B dimer (major type, wild type); experiment: other fluorescence titration; remark: listed apart in the source
[6] = target: T1, H2A/H2B dimer (major type, wild type); experiment: native gel or EMSA

- Kd [1]: 1.2 nM
- Kd [2]: 21.6 nM
- Kd [3]: 3.5 nM
- Kd (H3 alone): > 10000 nM
- Kd (H2A.Z/H2B dimer): 7.4 nM
- Kd [4]: 7.8 nM
- Kd [5]: 7.8 nM
B1: yNap1 C200A/C249A/C272A labelled with Alexa dye at Cys-414 (yNap1m*) (natural protein)
chain: MSDPIRTKPKSSMQIDNAPTPHNTPASVLNPSYLKNGNPVRAQAQEQDDKIGTINEEDILANQPLLLQSIQDRLGSLVGQDSGYVGGLPKNVKEKLLSLKTLQSELFEVEKEFQVEMFELENKFLQKYKPIWEQRSRIISGQEQPKPEQIAKGQEIVESLNETELLVDEEEKAQNDSEEEQVKGIPSFWLTALENLPIVADTITDRDAEVLEYLQDIGLEYLTDGRPGFKLLFRFDSSANPFFTNDILAKTYFYQKELGYSGDFIYDHAEGAEISWKDNAHNVTVDLEMRKQRNKTTKQVRTIEKITPIESFFNFFDPPKIQNEDQDEELEEDLEERLALDYSIGEQLKDKLIPRAVDWFTGAALEFEFEEDEEEADEDEDEEEDDDHGLEDDDGESAEEQDDFAGRPEQAPECKQS
modifications: Alexa-546 or Alexa-488 on Cys-414

- binding result [6]: binds
B2: yeast nucleosome assembly protein 1 (yNap1), wild type (natural protein)
chain: B1 chain with A200C, A249C, A272C
